{"source": "paper PMC4063126", "target": "DENV1 prM protein with H98A (dengue virus 1 (DENV1), FGA/NA d1d strain)", "test": "co-IP", "data": [{"substance": "DENV1 E protein with H244A (natural protein)", "values": [{"measurement": "co-IP at pH 6.0 as percent of that at pH 7.0", "result": 33, "unit": "%"}]}]}
